Experimental data published in patent US20160114000A1 (Merck Sharp & Dohme, published 2016).
*1 amine or outer side, *2 acyl side, *3 side chain or, on linkers, in order; H or OH if unused. Where a SMILES comes first, the peptide text is derived from it. Where no end group is shown, it is not given here. Side-chain parts run from the residue outwards. [ ]: non-standard residue; d: D form. The star is where a group is joined. γGlu = O=C(O)[C@H](CCC(=O)[*:2])N[*:1]; Palmitoyl = CCCCCCCCCCCCCCCC(=O)*; Nle = CCCC[C@H](N)C(=O)O; Aib = CC(C)(N)C(=O)O

Assays:
[1] = target: T1, human GCGR (Homo sapiens, UniProt P47871); assay: cAMP protocol, cells expressing human GCGR; type: cell-based; conditions: ratio of EC50 at human GCGR to EC50 at human GLP1R
T1 construct: expressed in transfected cells; grown under Geneticin and Hygromycin selection
Procedure: The cAMP protocol was as follows.
Peptides were dissolved in 100% DMSO and serially diluted to generate 11 point titrations. The peptide solutions were then transferred into 384-well assay plates (150 nL/well). Assay ready frozen cells expressing human GLP-1R or human GCGR were suspended in growth media consisting of DMEM/F12 medium (GIBCO), 10% FBS (GIBCO), lx P/S (GIBCO), 800 μg/mL Geneticin (GIBCO), and 300 μg/mL Hygromycin (Invitrogen). Cells were then diluted in assay buffer consisting of PBS (GIBCO), 7.5% BSA (Perkin Elmer), 100 μM RO 20-1724 (Sigma), and 20% human serum (MP Biomedical). The cell suspensions (15 μL) were then added to the assay plates containing the peptide solutions (30,000 cells/well for human GCGR; 20,000 cells/well for GLP1R). The cells were incubated for 1 hour at room temperature in the dark. Production of cAMP was determined using HitHunter™ cAMPXS kits (DiscoverX). ED buffer (20 μL) was then added to each well and the plates were incubated for 1 hour at room temperature in the dark. Subsequently, EA buffer (20 μL) was added to each well, and the plates were incubated for 1-18 hours at room temperature in the dark. Luminescence was measured using an EnVision Multilabel plate reader (Perkin Elmer). EC50 values were calculated using ADA data analyzer software.

[2] = target: human glucagon receptor (human, UniProt P47871 26-477); assay: cell-based or functional assay
[3] = target: human GLP-1 receptor (human, UniProt P43220 24-463); assay: cell-based or functional assay

T1 sequence (P47871 26-477): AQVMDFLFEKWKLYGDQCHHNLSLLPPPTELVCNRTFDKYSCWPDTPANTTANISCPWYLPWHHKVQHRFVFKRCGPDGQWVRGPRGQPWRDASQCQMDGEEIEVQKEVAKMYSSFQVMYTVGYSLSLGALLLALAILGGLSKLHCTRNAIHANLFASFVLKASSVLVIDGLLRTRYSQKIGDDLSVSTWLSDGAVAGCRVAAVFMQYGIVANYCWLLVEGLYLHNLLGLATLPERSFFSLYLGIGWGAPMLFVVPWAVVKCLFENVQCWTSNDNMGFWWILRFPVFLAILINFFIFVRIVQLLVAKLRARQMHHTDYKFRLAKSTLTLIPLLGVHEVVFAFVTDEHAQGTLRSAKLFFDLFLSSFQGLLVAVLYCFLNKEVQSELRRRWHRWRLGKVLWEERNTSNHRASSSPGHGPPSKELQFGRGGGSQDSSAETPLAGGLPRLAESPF
Chain of human glucagon receptor (P47871 26-477): as above

Row | Molecule | hGCGR/hGLP1R (hTone) [1] | GCGR EC50 (nM) human; cAMP production (HitHunter cAMPXS), 20% human serum [2] [nM] | hGCGR/hGLP1R (hTone): ratio of cAMP EC50 at human GCGR to cAMP EC50 at human GLP1R [2] [ratio] | GLPR1 EC50 (nM) human; cAMP production (HitHunter cAMPXS), 20% human serum [3] [nM]
1 | CCCCCCCCCCCCCCCC(=O)N[C@@H](CCC(=O)N[C@@H](CCC(=O)NCCCC[C@H](NC(=O)[C@H](CC(=O)O)NC(=O)[C@H](CO)NC(=O)[C@@H](NC(=O)[C@H](Cc1ccccc1)NC(=O)[C@@H](NC(=O)CNC(=O)[C@H](CCC(N)=O)NC(=O)[C@@H](CO)NC(=O)[C@@H](N)Cc1c[nH]cn1)[C@@H](C)O)[C@@H](C)O)C(=O)N[C@@H](CO)C(=O)N[C@@H](CCCCN)C(=O)N[C@@H](Cc1ccc(O)cc1)C(=O)N[C@@H](CC(C)C)C(=O)N[C@@H](CCC(=O)O)C(=O)N[C@@H](C)C(=O)N[C@@H](CCCNC(=N)N)C(=O)N[C@@H](C)C(=O)N[C@@H](C)C(=O)N[C@@H](CCC(N)=O)C(=O)N[C@@H](CC(=O)O)C(=O)N[C@@H](Cc1ccccc1)C(=O)N[C@H](C(=O)N[C@@H](CCC(N)=O)C(=O)N[C@@H](Cc1c[nH]c2ccccc12)C(=O)N[C@@H](CC(C)C)C(=O)N[C@@H](CC(C)C)C(=O)N[C@@H](CC(=O)O)C(=O)N[C@H](C(N)=O)[C@@H](C)O)C(C)C)C(=O)O)C(=O)O [SEQ ID NO: 13] | 0.90 |  |  | 
2 | CCCCCCCCCCCCCCCC(=O)N[C@@H](CCC(=O)N[C@@H](CCC(=O)NCCCC[C@H](NC(=O)[C@H](CC(=O)O)NC(=O)[C@H](CO)NC(=O)[C@@H](NC(=O)[C@H](Cc1ccccc1)NC(=O)[C@@H](NC(=O)CNC(=O)[C@H](CCC(N)=O)NC(=O)C1(NC(=O)[C@@H](N)Cc2c[nH]cn2)CCC1)[C@@H](C)O)[C@@H](C)O)C(=O)N[C@@H](CO)C(=O)N[C@@H](CCCCN)C(=O)N[C@@H](Cc1ccc(O)cc1)C(=O)N[C@@H](CC(C)C)C(=O)N[C@@H](CC(=O)O)C(=O)N[C@@H](CCC(=O)O)C(=O)N[C@@H](CCCNC(=N)N)C(=O)N[C@@H](C)C(=O)N[C@@H](C)C(=O)N[C@@H](CCC(N)=O)C(=O)N[C@@H](CC(=O)O)C(=O)N[C@@H](Cc1ccccc1)C(=O)N[C@H](C(=O)N[C@@H](CCC(N)=O)C(=O)N[C@@H](Cc1c[nH]c2ccccc12)C(=O)N[C@@H](CC(C)C)C(=O)N[C@@H](CC(C)C)C(=O)N[C@@H](CC(=O)O)C(=O)N[C@H](C(N)=O)[C@@H](C)O)C(C)C)C(=O)O)C(=O)O [SEQ ID NO: 18] | 1.25 |  |  | 
3 | CCCCCCCCCCCCCCCC(=O)N[C@@H](CCC(=O)N[C@@H](CCC(=O)NCCCC[C@H](NC(=O)[C@H](CC(=O)O)NC(=O)[C@H](CO)NC(=O)[C@@H](NC(=O)[C@H](Cc1ccccc1)NC(=O)[C@@H](NC(=O)CNC(=O)[C@H](CCC(N)=O)NC(=O)[C@@H](CO)NC(=O)[C@@H](N)Cc1c[nH]cn1)[C@@H](C)O)[C@@H](C)O)C(=O)N[C@@H](CO)C(=O)N[C@@H](CC(C)C)C(=O)N[C@@H](Cc1ccc(O)cc1)C(=O)N[C@@H](CC(C)C)C(=O)N[C@@H](CC(=O)O)C(=O)N[C@@H](CCC(=O)O)C(=O)N[C@@H](CCCNC(=N)N)C(=O)N[C@@H](C)C(=O)N[C@@H](C)C(=O)N[C@@H](CCC(N)=O)C(=O)N[C@@H](CC(=O)O)C(=O)N[C@@H](Cc1ccccc1)C(=O)N[C@H](C(=O)N[C@@H](CCC(N)=O)C(=O)N[C@@H](Cc1c[nH]c2ccccc12)C(=O)N[C@@H](CC(C)C)C(=O)N[C@@H](CC(C)C)C(=O)N[C@@H](CC(=O)O)C(=O)N[C@H](C(N)=O)[C@@H](C)O)C(C)C)C(=O)O)C(=O)O [SEQ ID NO: 16] (H-H[dS]QGTFTSDK([γGlu-γGlu-Palmitoyl])SLYLDERAAQDFVQWLLDT-NH2) | 0.91 |  |  | 
4 | H[dS]QGTFTSDK([γGlu-Palmitoyl])SKYLDARAAQDFVQWLLDT-NH2 (N-terminus assumed; SMILES CCCCCCCCCCCCCCCC(=O)N[C@@H](CCC(=O)NCCCC[C@H](NC(=O)[C@H](CC(=O)O)NC(=O)[C@H](CO)NC(=O)[C@@H](NC(=O)[C@H](Cc1ccccc1)NC(=O)[C@@H](NC(=O)CNC(=O)[C@H](CCC(N)=O)NC(=O)[C@@H](CO)NC(=O)[C@@H](N)Cc1c[nH]cn1)[C@@H](C)O)[C@@H](C)O)C(=O)N[C@@H](CO)C(=O)N[C@@H](CCCCN)C(=O)N[C@@H](Cc1ccc(O)cc1)C(=O)N[C@@H](CC(C)C)C(=O)N[C@@H](CC(=O)O)C(=O)N[C@@H](C)C(=O)N[C@@H](CCCNC(=N)N)C(=O)N[C@@H](C)C(=O)N[C@@H](C)C(=O)N[C@@H](CCC(N)=O)C(=O)N[C@@H](CC(=O)O)C(=O)N[C@@H](Cc1ccccc1)C(=O)N[C@H](C(=O)N[C@@H](CCC(N)=O)C(=O)N[C@@H](Cc1c[nH]c2ccccc12)C(=O)N[C@@H](CC(C)C)C(=O)N[C@@H](CC(C)C)C(=O)N[C@@H](CC(=O)O)C(=O)N[C@H](C(N)=O)[C@@H](C)O)C(C)C)C(=O)O) [Co-agonist Peptide 1] |  | 0.042 | 0.88 | 0.048
5 | H[Aib]VGTFTSDK([γGlu-γGlu-Palmitoyl])SKYLD[Aib]RAAQDFVQWL[Nle]DT-NH2 (N-terminus assumed; SMILES CCCCCCCCCCCCCCCC(=O)N[C@@H](CCC(=O)N[C@@H](CCC(=O)NCCCC[C@H](NC(=O)[C@H](CC(=O)O)NC(=O)[C@H](CO)NC(=O)[C@@H](NC(=O)[C@H](Cc1ccccc1)NC(=O)[C@@H](NC(=O)CNC(=O)[C@@H](NC(=O)C(C)(C)NC(=O)[C@@H](N)Cc1c[nH]cn1)C(C)C)[C@@H](C)O)[C@@H](C)O)C(=O)N[C@@H](CO)C(=O)N[C@@H](CCCCN)C(=O)N[C@@H](Cc1ccc(O)cc1)C(=O)N[C@@H](CC(C)C)C(=O)N[C@@H](CC(=O)O)C(=O)NC(C)(C)C(=O)N[C@@H](CCCNC(=N)N)C(=O)N[C@@H](C)C(=O)N[C@@H](C)C(=O)N[C@@H](CCC(N)=O)C(=O)N[C@@H](CC(=O)O)C(=O)N[C@@H](Cc1ccccc1)C(=O)N[C@H](C(=O)N[C@@H](CCC(N)=O)C(=O)N[C@@H](Cc1c[nH]c2ccccc12)C(=O)N[C@@H](CC(C)C)C(=O)N[C@@H](CCCC)C(=O)N[C@@H](CC(=O)O)C(=O)N[C@H](C(N)=O)[C@@H](C)O)C(C)C)C(=O)O)C(=O)O) [Co-agonist Peptide 4] |  |  | 8.98 | 
6 | H[dS]QGTFTSDK([γGlu-γGlu-Palmitoyl])SKYLDARAAQDFVQWLLDT-NH2 (N-terminus assumed; SMILES CCCCCCCCCCCCCCCC(=O)N[C@@H](CCC(=O)N[C@@H](CCC(=O)NCCCC[C@H](NC(=O)[C@H](CC(=O)O)NC(=O)[C@H](CO)NC(=O)[C@@H](NC(=O)[C@H](Cc1ccccc1)NC(=O)[C@@H](NC(=O)CNC(=O)[C@H](CCC(N)=O)NC(=O)[C@@H](CO)NC(=O)[C@@H](N)Cc1c[nH]cn1)[C@@H](C)O)[C@@H](C)O)C(=O)N[C@@H](CO)C(=O)N[C@@H](CCCCN)C(=O)N[C@@H](Cc1ccc(O)cc1)C(=O)N[C@@H](CC(C)C)C(=O)N[C@@H](CC(=O)O)C(=O)N[C@@H](C)C(=O)N[C@@H](CCCNC(=N)N)C(=O)N[C@@H](C)C(=O)N[C@@H](C)C(=O)N[C@@H](CCC(N)=O)C(=O)N[C@@H](CC(=O)O)C(=O)N[C@@H](Cc1ccccc1)C(=O)N[C@H](C(=O)N[C@@H](CCC(N)=O)C(=O)N[C@@H](Cc1c[nH]c2ccccc12)C(=O)N[C@@H](CC(C)C)C(=O)N[C@@H](CC(C)C)C(=O)N[C@@H](CC(=O)O)C(=O)N[C@H](C(N)=O)[C@@H](C)O)C(C)C)C(=O)O)C(=O)O) [Co-agonist Peptide 5] |  | 0.03 | 0.9 | 0.033
7 | HXQGTFTSDKSKYLDERAAQDFVQWLLDT (D-Ser at 2; Lys 10 conjugated to γEγE-C16 (palmitoyl); C-terminal amide) [Comparator Co-agonist Peptide 6] |  | 0.009 | 1.3 | 0.007
8 | Ac-HAQGTFTSDK([γGlu-γGlu-Palmitoyl])SKYLDERAAQDFVQWLLDT-NH2 (SMILES CCCCCCCCCCCCCCCC(=O)N[C@@H](CCC(=O)N[C@@H](CCC(=O)NCCCC[C@H](NC(=O)[C@H](CC(=O)O)NC(=O)[C@H](CO)NC(=O)[C@@H](NC(=O)[C@H](Cc1ccccc1)NC(=O)[C@@H](NC(=O)CNC(=O)[C@H](CCC(N)=O)NC(=O)[C@H](C)NC(=O)[C@H](Cc1c[nH]cn1)NC(C)=O)[C@@H](C)O)[C@@H](C)O)C(=O)N[C@@H](CO)C(=O)N[C@@H](CCCCN)C(=O)N[C@@H](Cc1ccc(O)cc1)C(=O)N[C@@H](CC(C)C)C(=O)N[C@@H](CC(=O)O)C(=O)N[C@@H](CCC(=O)O)C(=O)N[C@@H](CCCNC(=N)N)C(=O)N[C@@H](C)C(=O)N[C@@H](C)C(=O)N[C@@H](CCC(N)=O)C(=O)N[C@@H](CC(=O)O)C(=O)N[C@@H](Cc1ccccc1)C(=O)N[C@H](C(=O)N[C@@H](CCC(N)=O)C(=O)N[C@@H](Cc1c[nH]c2ccccc12)C(=O)N[C@@H](CC(C)C)C(=O)N[C@@H](CC(C)C)C(=O)N[C@@H](CC(=O)O)C(=O)N[C@H](C(N)=O)[C@@H](C)O)C(C)C)C(=O)O)C(=O)O) [Co-agonist Peptide 7] |  |  | 1 | 
9 | HXQGTXTSDKSKYLDERAAQDFVQWLLDT (D-Ser at 2; threo-β-phenylserine (tβP) at 6; Lys 10 conjugated to γEγE-C16 (palmitoyl); C-terminal amide) [Co-agonist Peptide 14] |  |  | 1.02 | 
10 | H[dS]QGTFTSDK([γGlu-γGlu-Palmitoyl])SKYLDVRRAQDFVQWLLDT-NH2 (not fully specified; printed as HsQGTFTSDK(γEγEC16)SKYLDVRRAQDFVQWLLDT-NH2) [Co-agonist Peptide 2] |  |  | 0.3 | 
